Assay results as given in patent US20120058906A1 (published 2012).
Values belong to the binder of their own block, whether it stands above or below them.

Legend:
[1] = target: T1, rHuman Notch-1/Fc Chimera, CF (R&D Systems Cat#3647-TK) (human, UniProt P46531 19-526); experiment: ECL (MSD Multi-Spot) binding, antigen spotted on plate, Fab at 125 nM; blank spot 403;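 further: blank spot per well as comparator with Hit at signal to blank ratio of 4 or more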
T1 construct: Bought Fc chimera; Fc part of the bought chimera not given

[2] = target: T2, rHuman IGF-1 sR (IGF-1 sR), CF (R&D Systems Cat#391-GR) (human, UniProt P08069 31-932); experiment: as above
T2 construct: Bought soluble receptor; also called insulin-like growth factor-1 soluble receptor; IGF-R1

[3] = target: T3, rHuman Erythropoietin R/Fc Chimera, CF (R&D Systems Cat#963-ER) (human, UniProt P19235 25-250); experiment: as above
T3 construct: Bought Fc chimera; also called EPO R/Fc; Epo R; Fc part of the bought chimera not given
T3 sequence: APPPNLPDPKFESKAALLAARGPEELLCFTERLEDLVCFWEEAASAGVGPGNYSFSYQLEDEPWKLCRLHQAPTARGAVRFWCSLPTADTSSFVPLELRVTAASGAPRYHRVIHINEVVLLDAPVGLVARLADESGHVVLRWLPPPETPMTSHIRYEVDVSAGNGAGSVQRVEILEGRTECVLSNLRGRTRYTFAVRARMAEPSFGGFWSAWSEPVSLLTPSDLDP

[4] = target: T1, rHuman Notch-1/Fc Chimera, CF (R&D …); experiment: ECL (MSD Multi-Spot) binding, antigen spotted on plate, Fab at 250 nM; blank spot 590;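 further: blank spot per well as comparator with Hit at signal to blank ratio of 4 or more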
[5] = target: T2, rHuman IGF-1 sR (IGF-1 sR), CF (R&D …); experiment: as above
[6] = target: T3, rHuman Erythropoietin R/Fc Chimera, CF …; experiment: as above
[7] = target: T1, rHuman Notch-1/Fc Chimera, CF (R&D …); experiment: ECL (MSD Multi-Spot) binding, antigen spotted on plate, Fab at 500 nM; blank spot 680;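 further: blank spot per well as comparator with Hit at signal to blank ratio of 4 or more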
[8] = target: T2, rHuman IGF-1 sR (IGF-1 sR), CF (R&D …); experiment: as above
[9] = target: T3, rHuman Erythropoietin R/Fc Chimera, CF …; experiment: as above
[10] = target: T1, rHuman Notch-1/Fc Chimera, CF (R&D …); experiment: ECL (MSD Multi-Spot) binding, antigen spotted on plate, Fab at 7.8 nM; blank spot 316;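 further: blank spot per well as comparator with Hit at signal to blank ratio of 4 or more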
[11] = target: T2, rHuman IGF-1 sR (IGF-1 sR), CF (R&D …); experiment: as above
[12] = target: T3, rHuman Erythropoietin R/Fc Chimera, CF …; experiment: as above
[13] = target: T1, rHuman Notch-1/Fc Chimera, CF (R&D …); experiment: ECL (MSD Multi-Spot) binding, antigen spotted on plate, Fab at 15.6 nM; blank spot 294
[14] = target: T2, rHuman IGF-1 sR (IGF-1 sR), CF (R&D …); experiment: as above
[15] = target: T3, rHuman Erythropoietin R/Fc Chimera, CF …; experiment: as above
[16] = target: T1, rHuman Notch-1/Fc Chimera, CF (R&D …); experiment: ECL (MSD Multi-Spot) binding, antigen spotted on plate, Fab at 31.3 nM; blank spot 250
[17] = target: T2, rHuman IGF-1 sR (IGF-1 sR), CF (R&D …); experiment: as above
[18] = target: T3, rHuman Erythropoietin R/Fc Chimera, CF …; experiment: as above
[19] = target: T1, rHuman Notch-1/Fc Chimera, CF (R&D …); experiment: ECL (MSD Multi-Spot) binding, antigen spotted on plate, Fab at 62.5 nM; blank spot 268
[20] = target: T2, rHuman IGF-1 sR (IGF-1 sR), CF (R&D …); experiment: as above
[21] = target: T3, rHuman Erythropoietin R/Fc Chimera, CF …; experiment: as above
[22] = target: T1, rHuman Notch-1/Fc Chimera, CF (R&D …); experiment: ECL (MSD Multi-Spot) binding, antigen spotted on plate, Fab at 1000 nM; blank spot 1133
[23] = target: T2, rHuman IGF-1 sR (IGF-1 sR), CF (R&D …); experiment: as above
[24] = target: T3, rHuman Erythropoietin R/Fc Chimera, CF …; experiment: as above
[25] = target: T4, rHuman ErbB2/Fc Chimera, CF (R&D Systems Cat#1129-ER) (human, UniProt P04626 23-652); experiment: MSD ECL multi-spot assay, antigen spotted on plate, Fab 0.36 uM; blank spot 1948
T4 construct: Bought protein; also called HER2/neu; human epidermal growth factor 2 receptor; Fc part of the bought chimera not given

[26] = target: T5, rHuman HGF R/c-MET/Fc Chimera, CF (R&D Systems Cat#358-MT/CF) (human, UniProt P08581 25-932); experiment: as above
T5 construct: Bought protein; also called HGF R/Fc; hepatocyte growth factor receptor; Fc part of the bought chimera not given

[27] = target: T6, rHuman CD44/Fc Chimera, CF (R&D Systems Cat#3660-CD) (human, UniProt P16070 21-220); experiment: as above
T6 construct: Bought protein; Fc part of the bought chimera not given

[28] = target: T7, rHuman IGF-1 sR (IGF-1 sR), CF (R&D Systems Cat#391-GR) (human, UniProt P08069 31-932); experiment: as above
T7 construct: Bought soluble receptor; also called insulin-like growth factor-1 soluble receptor; IGF-R1

[29] = target: T8, rHuman P-Cadherin/Fc Chimera, CF (R&D Systems Cat#861-PC) (human, UniProt P22223 108-654); experiment: as above
T8 construct: Bought protein; also called CDH3; Fc part of the bought chimera not given

[30] = target: T9, rHuman Erythropoietin R/Fc Chimera, CF (R&D Systems Cat#963-ER) (human, UniProt P19235 25-250); experiment: as above
T9 construct: Bought protein; also called EPOR; EPO R/Fc; Fc part of the bought chimera not given
T9 sequence: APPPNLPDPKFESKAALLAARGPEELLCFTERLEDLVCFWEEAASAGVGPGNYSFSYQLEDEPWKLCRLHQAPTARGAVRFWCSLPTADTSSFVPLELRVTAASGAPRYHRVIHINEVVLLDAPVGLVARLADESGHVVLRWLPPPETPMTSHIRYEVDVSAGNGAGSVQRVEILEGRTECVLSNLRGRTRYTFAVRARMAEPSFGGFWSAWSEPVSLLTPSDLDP

ECL signal [1]: 802 | ECL signal [2]: 654 | ECL signal [3]: 9240 | ECL signal [4]: 1240 | ECL signal [5]: 993 | ECL signal [6]: 8540 | ECL signal [7]: 1980 | ECL signal [8]: 1330 | ECL signal [9]: 10300 | ECL signal [10]: 486 | ECL signal [11]: 353 | ECL signal [12]: 6760 | ECL signal [13]: 418 | ECL signal [14]: 349 | ECL signal [15]: 8360 | ECL signal [16]: 563 | ECL signal [17]: 385 | ECL signal [18]: 7880 | ECL signal [19]: 536 | ECL signal [20]: 491 | ECL signal [21]: 7750 | ECL signal [22]: 2270 | ECL signal [23]: 1670 | ECL signal [24]: 8590
B1: Fab VH1-46_IGHD6-13*01_IGHJ4*01 & B3_IGKJ1*01 (Fab, V domains shown)
VH: QVQLVQSGAEVKKPGASVKVSCKASGYTFTSYYMHWVRQAPGQGLEWMGIINPSGGSTSYAQKFQGRVTMTRDTSTSTVYMELSSLRSEDTAVYYCAREGYSSSWYDYFDYWGQGTLVTVSS
VL: not shown
notes: Tested as a Fab made in E. coli: VH joined to the CH1 of Plasmid A (with Flag and His tags), VL joined to the kappa constant region of Plasmid C; also called VH1-46_IGHD6-13*01_IGH41*01 & B3_IGKJ1*01

ECL signal [25]: 2030 | ECL signal [26]: 2030 | ECL signal [27]: 2480 | ECL signal [28]: 1700 | ECL signal [29]: 2740 | ECL signal [30]: 19400
B2: Fab VH4-28_IGHD7-27*01_IGHJ1*01 & L2_IGKJ1*01 (Fab, V domains shown)
VH: QVQLQESGPGLVKPSDTLSLTCAVSGYSISSSNWWGWIRQPPGKGLEWIGYIYYSGSTYYNPSLKSRVTMSVDTSKNQFSLKLSSVTAVDTAVYYCARTNWGAEYFQHWGQGTLVTVSS
VL: not shown
